The results in this text go back to the supplement of paper PMC10567573.

The nature of this data set: protein stability index of a GFP-peptide fusion (GPS, HEK-293T) (PSI 1-6); higher = more stable. To be noted: c terminus: a fixed tail appended.

± gives the standard deviation.
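Note: 24-mer peptide tiles fused after GFP, lentivirally expressed, FACS-sorted into six equal bins by GFP/DsRed ratio, decoded by Illumina sequencing, PSI is the read-weighted mean bin number.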

Sequence STTEWNDETLYQEFNGLKKMNPKL [CHIT1] had a protein stability index (treatment: DMSO) of 4.2 ± 0.2 and a protein stability index (treatment: MLN4924 1 uM, 8 h) of 4.54 ± 0.2.
For STVISSMPCLLMELRRDSSESQLA [C18orf25], in that order: 3.02 ± 0.13 and 3.13 ± 0.33.
For SVMAIERCIGVTKPIFHSTKITSK [PTGFR], in that order: 2.71 ± 0.16 and 2.98 ± 0.49.
Turning to SVSQDFPGSNLNLLTNNSGTPKDH [ETS2], the protein stability index is 4.8 ± 0.38 (treatment: DMSO) and 4.83 ± 0.27 (treatment: MLN4924 1 uM, 8 h).
Sequence SVTGYSFASDGDSGTCSPLRHSFQ [ADD1] yielded a protein stability index (treatment: DMSO) of 3.28 ± 0.25 and a protein stability index (treatment: MLN4924 1 uM, 8 h) of 3.11 ± 0.36.
Regarding SYGPVILVVLVVAVVASSVNSYYS [TOR1AIP2], the protein stability index (treatment: DMSO) worked out at 3.57 ± 0.3 and the protein stability index (treatment: MLN4924 1 uM, 8 h) was determined as 2.85 ± 0.095.
For the sequence SYKYTSRYVLKAGQTVTIWAANAG [LMNB1], the protein stability index reads like this: (treatment: DMSO) 2.24 ± 0.25; (treatment: MLN4924 1 uM, 8 h) 1.87 ± 0.25.
For SYLLKSGADKEILTTKGEMPVQLT [ANKRD40], in that order: 3.46 ± 0.38 and 3.55 ± 0.19.
For TACKPVIRVPSVPPVPCVPSVPCT [KRT36], the protein stability index reads like this: (treatment: DMSO) 3.15 ± 0.28; (treatment: MLN4924 1 uM, 8 h) 3.27 ± 0.2.
In the case of TAEKRKRLGELFNPYYDPLQWKSS [CHGB], the protein stability index reads like this: (treatment: DMSO) 2.54 ± 0.17; (treatment: MLN4924 1 uM, 8 h) 2.93 ± 0.34.
Take TAIKSIEFARKGSCFLINTADRII [RBBP5]: the protein stability index (treatment: DMSO) amounted to 2.6 ± 0.22 and the protein stability index (treatment: MLN4924 1 uM, 8 h) was 2.75 ± 0.78.
Turning to TALVTVSSEEFEDKWFRKIKDHFC [C8orf76], the protein stability index (treatment: DMSO) was 2.33 ± 0.16 and the protein stability index (treatment: MLN4924 1 uM, 8 h) was determined as 2.54 ± 0.25.
With TARMEMLIEELYAFMPARSQDPKK [CBY2], the protein stability index came to 2.66 ± 0.39 (treatment: DMSO) and 2.94 ± 0.27 (treatment: MLN4924 1 uM, 8 h).
Take TASKAIIEKEYQPHVIVSTTGPNP [ADD1]: the protein stability index was 4.47 ± 0.21 (treatment: DMSO) and 4.65 ± 0.16 (treatment: MLN4924 1 uM, 8 h).
For TATFAVHFMVLSKSGPGDGFFSSA [POMT2], the protein stability index is, setting by setting: (treatment: DMSO) 2.84 ± 0.36; (treatment: MLN4924 1 uM, 8 h) 2.93 ± 0.51.
Consider TAVGAILAGGLCVGIYATNSAEAC [ACSBG2], for which the protein stability index reads like this: (treatment: DMSO) 2.35 ± 0.12; (treatment: MLN4924 1 uM, 8 h) 2.84 ± 0.75.
TCADRDNLTRRFSDLGFEVKCFND [CASP6] showed a protein stability index (treatment: DMSO) of 2.96 ± 0.32 and a protein stability index (treatment: MLN4924 1 uM, 8 h) of 3.24 ± 0.21.
Regarding TDIDLQTIDNDIVSMEIFFKAWLH [M1AP], the protein stability index reads like this: (treatment: DMSO) 2.39 ± 0.33; (treatment: MLN4924 1 uM, 8 h) 2.34 ± 0.45.
As for TDLAQQQGGGNGQQQQAMSFAILR [KCNA4], the protein stability index reads like this: (treatment: DMSO) 3.96 ± 0.1; (treatment: MLN4924 1 uM, 8 h) 3.81 ± 0.35.
TDLKTLCCEFLEGCIAAENCIGIR [GAN]: the protein stability index runs as follows: (treatment: DMSO) 2.35 ± 0.4; (treatment: MLN4924 1 uM, 8 h) 2.48 ± 0.2.
In turn, TEDGKLDIWSKSNYQVFQKVTDHA [MED27] yielded a protein stability index (treatment: DMSO) of 3.67 ± 0.27 and a protein stability index (treatment: MLN4924 1 uM, 8 h) of 3.77 ± 0.42.
In the case of TEFTRFLCSSPLEAETPPNGPDCG [ATE1], the protein stability index by setting is: (treatment: DMSO) 4.66 ± 0.086; (treatment: MLN4924 1 uM, 8 h) 4.52 ± 0.17.
For TEMIITKAGRRMFPACRVSVTGLD [TBX6], the protein stability index reads like this: (treatment: DMSO) 2.31 ± 0.3; (treatment: MLN4924 1 uM, 8 h) 2.2 ± 0.22.
On to TENSALQLQVTEREEVRGRELTGL [LMNB1], for which the protein stability index by setting is: (treatment: DMSO) 5.14 ± 0.2; (treatment: MLN4924 1 uM, 8 h) 5.13 ± 0.28.
Take TEQFTAMRDLYMKNGQGFALVYSI [RAP1B]: the protein stability index reads like this: (treatment: DMSO) 3.25 ± 1; (treatment: MLN4924 1 uM, 8 h) 2.96 ± 0.5.
In the same order, the values of TFDHEHHTTIVATRHYRPPEVILE [CLK3] are 3.34 ± 0.19 and 3.29 ± 0.17.
In the case of TGACGEAMAAAEGSSGPAGLTLGR [SEPHS2], the protein stability index is, setting by setting: (treatment: DMSO) 3.78 ± 0.082; (treatment: MLN4924 1 uM, 8 h) 3.87 ± 0.055.
Take TGLSGGKRPSQEEDTQSIGPKVQR [CRY1]: the protein stability index reads like this: (treatment: DMSO) 5 ± 0.33; (treatment: MLN4924 1 uM, 8 h) 5.04 ± 0.23.
In the case of THRLKDGSTMLIEAAKGGHTSVVC [ANKRD17], the protein stability index is 2.51 ± 0.33 (treatment: DMSO) and 2.56 ± 0.33 (treatment: MLN4924 1 uM, 8 h).
In the case of THSSLSQELQARLQTVTREKEELL [CCDC89], the protein stability index runs as follows: (treatment: DMSO) 4.89 ± 0.35; (treatment: MLN4924 1 uM, 8 h) 4.68 ± 0.22.
In the same order, the values of TIGNLVPQKTYSVKVLAFTSIGDG [PTPRD] are 2.39 ± 0.16 and 2 ± 0.33.
For TIPATLLVDHVGSKTFLCIGSSVM [SLC2A12], in that order: 2.69 ± 0.5 and 2.34 ± 0.44.
As for TIQKGSYTFVPWLLSFKRGSALEE [TNFSF13B], the protein stability index runs as follows: (treatment: DMSO) 2.11 ± 0.15; (treatment: MLN4924 1 uM, 8 h) 2.04 ± 0.22.
Turning to TKADIGTPSNFQHIGHVGWDPNTG [WASL], the protein stability index by setting is: (treatment: DMSO) 3.81 ± 0.21; (treatment: MLN4924 1 uM, 8 h) 3.85 ± 0.18.
Regarding TLAVTCQLPIDRGGGEGKAMYIDT [RAD51], the protein stability index by setting is: (treatment: DMSO) 3.14 ± 0.25; (treatment: MLN4924 1 uM, 8 h) 3.33 ± 0.32.
On to TLLAVGCNDGRIVIWDFLTRGIAK [RBBP5], for which the protein stability index reads like this: (treatment: DMSO) 2.65 ± 0.51; (treatment: MLN4924 1 uM, 8 h) 2.55 ± 0.84.
